Reference: publication PMC10509710

Key:
[1] = molecular target: human full-length scavenger receptor class B type 1 (SR-B1), glycosylated (human) (UniProt Q8WTV0); test: flow cytometry on cells; Sf9 cells 72 h after baculovirus infection, 10 μg/ml DiI-HDL or DiI-oxLDL in ESF 921/0.5% BSA for 90 min at 4 °C; MFI compared with cells infected with empty vector
[2] = molecular target: human full-length cluster of differentiation 36 (CD36), glycosylated (human) (UniProt P16671); test: as above
[3] = molecular target: human full-length cluster of differentiation 36 (CD36), glycosylated (human) (UniProt P16671); test: MST; Cy5-labeled receptor (RED-NHS, lysines) at constant 20 nM, ligand in a 16-point 1:1 dilution series; exchange buffer (50 mM Hepes pH 7.5, 150 mM NaCl, 0.025% LMNG, 0.005% CHS); 25 °C, 40% MST power; apparent Kd, one-site specific binding; molar values from average molecular weights (267.5 kDa HDL, 3500 kDa oxLDL)
[4] = molecular target: human full-length scavenger receptor class B type 1 (SR-B1), glycosylated (human) (UniProt Q8WTV0); test: as above

human full-length scavenger receptor class B type 1 (SR-B1), glycosylated (human), sequence (Q8WTV0 other isoform, or with tags, fused parts or gaps): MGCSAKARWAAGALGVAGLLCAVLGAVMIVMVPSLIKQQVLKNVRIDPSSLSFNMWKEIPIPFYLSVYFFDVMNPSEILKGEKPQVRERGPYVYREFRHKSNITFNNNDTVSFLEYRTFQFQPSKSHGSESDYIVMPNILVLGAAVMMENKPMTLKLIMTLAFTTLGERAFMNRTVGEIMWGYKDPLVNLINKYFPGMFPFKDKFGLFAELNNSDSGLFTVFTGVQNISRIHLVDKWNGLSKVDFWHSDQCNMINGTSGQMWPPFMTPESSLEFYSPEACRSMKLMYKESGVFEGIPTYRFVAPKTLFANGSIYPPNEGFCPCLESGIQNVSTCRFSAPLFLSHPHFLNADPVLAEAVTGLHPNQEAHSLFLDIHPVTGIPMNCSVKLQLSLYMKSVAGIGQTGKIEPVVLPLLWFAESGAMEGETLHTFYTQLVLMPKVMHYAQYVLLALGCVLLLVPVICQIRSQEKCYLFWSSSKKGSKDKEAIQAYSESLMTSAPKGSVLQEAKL
human full-length cluster of differentiation 36 (CD36), glycosylated (human), sequence (P16671 whole entry): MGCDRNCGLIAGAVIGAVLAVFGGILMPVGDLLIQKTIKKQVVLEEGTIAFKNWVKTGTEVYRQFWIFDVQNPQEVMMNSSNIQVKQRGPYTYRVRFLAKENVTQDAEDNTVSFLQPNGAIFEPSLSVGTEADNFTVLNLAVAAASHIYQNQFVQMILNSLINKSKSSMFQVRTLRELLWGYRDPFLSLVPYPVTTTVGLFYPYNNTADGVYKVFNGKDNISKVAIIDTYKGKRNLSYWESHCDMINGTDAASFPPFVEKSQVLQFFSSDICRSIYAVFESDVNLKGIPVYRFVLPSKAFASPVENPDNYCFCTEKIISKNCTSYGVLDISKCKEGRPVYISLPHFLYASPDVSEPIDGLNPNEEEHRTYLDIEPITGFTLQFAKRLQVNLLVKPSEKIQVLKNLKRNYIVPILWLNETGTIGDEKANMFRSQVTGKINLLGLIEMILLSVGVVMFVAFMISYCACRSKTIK
human high-density lipoprotein (HDL), holoparticle, sequence (P02647 whole entry, looked up): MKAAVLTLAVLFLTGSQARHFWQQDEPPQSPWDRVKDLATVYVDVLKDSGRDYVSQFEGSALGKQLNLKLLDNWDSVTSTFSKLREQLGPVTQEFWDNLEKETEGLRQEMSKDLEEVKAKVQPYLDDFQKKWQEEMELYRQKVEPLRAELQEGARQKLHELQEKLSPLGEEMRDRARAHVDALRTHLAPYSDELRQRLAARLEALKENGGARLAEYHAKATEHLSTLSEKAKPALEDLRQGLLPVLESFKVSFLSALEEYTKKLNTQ
DiI-labeled high-density lipoprotein (DiI-HDL), sequence (P02647 whole entry, looked up): as above

## DiI-labeled high-density lipoprotein (DiI-HDL) (from UniProt P02647 19-267) (complex)
[1]
  percent increase of DiI-HDL binding (MFI at 4 °C) against empty vector: 37%

## DiI-labeled oxidized low-density lipoprotein (DiI-oxLDL) (complex)
[2]
  percent increase of DiI-oxLDL binding (MFI at 4 °C) against empty vector: 21%

## human high-density lipoprotein (HDL), holoparticle (from UniProt P02647 19-267) (complex)
[3]
  Kd: 0.123 µM
[4]
  Kd: 0.194 µM
